Test results from US20210060174.

Target: human fibrinogen (UniProt P02671)

Row | Substance | fibrin gel formation by primed hMSCs (confocal microscopy, Alexa-594-tagged fibrinogen) | fibrin formation, absorbance at 600 nm
1 | [cThrombin][S] | [cThrombin][S] bound to cell membranes was able to cleave fibrinogen to form a fibrin gel | –
2 | cationised thrombin | – | During cationisation, the activity of thrombin was retained up to 120 minutes of cationisation, although the activity was gradually decreased with increased cationisation duration
